Laboratory results taken from paper PMC9881579, “Reconfigurable asymmetric protein assemblies through implicit negative design” (Science (New York, N.Y.), 2022).

What was measured:
Details in all cases: both partners purified
[1] = target: T1, LHD101B (biotin on the Avi-tag where immobilised (Fig. S3D)); test: BLI; biotinylated protomer on streptavidin biosensors, designed partner in solution; 25 °C; 10 mM HEPES pH 7.4, 150 mM NaCl, 3 mM EDTA, 0.05% Surfactant P20, 1 mg/ml BSA; steady-state fit, 1:1 model
T1 construct: de novo designed protomer; also called LHD101 protomer B; source: E. coli BL21 LEMO, purified (Ni-NTA, SEC)

[2] = target: T1, LHD101B; test: BLI; biotinylated protomer on streptavidin biosensors, designed partner in solution; 25 °C; 10 mM HEPES pH 7.4, 150 mM NaCl, 3 mM EDTA, 0.05% Surfactant P20, 1 mg/ml BSA; global kinetic fit, 1:1 model
[3] = target: T2, LHD317B; test: BLI; biotinylated protomer on streptavidin biosensors, designed partner in solution; 25 °C; 10 mM HEPES pH 7.4, 150 mM NaCl, 3 mM EDTA, 0.05% Surfactant P20, 1 mg/ml BSA; steady-state fit, 1:1 model
T2 construct: de novo designed protomer; BLI: one protomer of the pair was Avi-tagged, biotinylated and immobilised; source: E. coli BL21 LEMO, purified (Ni-NTA, SEC)

[4] = target: T2, LHD317B; test: BLI; biotinylated protomer on streptavidin biosensors, designed partner in solution; 25 °C; 10 mM HEPES pH 7.4, 150 mM NaCl, 3 mM EDTA, 0.05% Surfactant P20, 1 mg/ml BSA; global kinetic fit, 1:1 model
[5] = target: T3, LHD284B; test: BLI; biotinylated protomer on streptavidin biosensors, designed partner in solution; 25 °C; 10 mM HEPES pH 7.4, 150 mM NaCl, 3 mM EDTA, 0.05% Surfactant P20, 1 mg/ml BSA; steady-state fit, 1:1 model
T3 construct: de novo designed protomer; BLI: one protomer of the pair was Avi-tagged, biotinylated and immobilised; also called LHD284 protomer B; source: E. coli BL21 LEMO, purified (Ni-NTA, SEC)

[6] = target: T3, LHD284B; test: BLI; biotinylated protomer on streptavidin biosensors, designed partner in solution; 25 °C; 10 mM HEPES pH 7.4, 150 mM NaCl, 3 mM EDTA, 0.05% Surfactant P20, 1 mg/ml BSA; global kinetic fit, 1:1 model
[7] = target: T4, LHD278B; test: BLI; biotinylated protomer on streptavidin biosensors, designed partner in solution; 25 °C; 10 mM HEPES pH 7.4, 150 mM NaCl, 3 mM EDTA, 0.05% Surfactant P20, 1 mg/ml BSA; steady-state fit, 1:1 model
T4 construct: de novo designed protomer; BLI: one protomer of the pair was Avi-tagged, biotinylated and immobilised; source: E. coli BL21 LEMO, purified (Ni-NTA, SEC)

[8] = target: T4, LHD278B; test: BLI; biotinylated protomer on streptavidin biosensors, designed partner in solution; 25 °C; 10 mM HEPES pH 7.4, 150 mM NaCl, 3 mM EDTA, 0.05% Surfactant P20, 1 mg/ml BSA; global kinetic fit, 1:1 model
[9] = target: T5, LHD275B; test: BLI; biotinylated protomer on streptavidin biosensors, designed partner in solution; 25 °C; 10 mM HEPES pH 7.4, 150 mM NaCl, 3 mM EDTA, 0.05% Surfactant P20, 1 mg/ml BSA; steady-state fit, 1:1 model
T5 construct: de novo designed protomer; BLI: one protomer of the pair was Avi-tagged, biotinylated and immobilised; source: E. coli BL21 LEMO, purified (Ni-NTA, SEC)

[10] = target: T5, LHD275B; test: BLI; biotinylated protomer on streptavidin biosensors, designed partner in solution; 25 °C; 10 mM HEPES pH 7.4, 150 mM NaCl, 3 mM EDTA, 0.05% Surfactant P20, 1 mg/ml BSA; global kinetic fit, 1:1 model
[11] = target: T6, LHD202A; test: BLI; biotinylated protomer on streptavidin biosensors, designed partner in solution; 25 °C; 10 mM HEPES pH 7.4, 150 mM NaCl, 3 mM EDTA, 0.05% Surfactant P20, 1 mg/ml BSA; steady-state fit, 1:1 model
T6 construct: de novo designed protomer; BLI: one protomer of the pair was Avi-tagged, biotinylated and immobilised; also called LHD202 protomer A; source: E. coli BL21 LEMO, purified (Ni-NTA, SEC)

[12] = target: T6, LHD202A; test: BLI; biotinylated protomer on streptavidin biosensors, designed partner in solution; 25 °C; 10 mM HEPES pH 7.4, 150 mM NaCl, 3 mM EDTA, 0.05% Surfactant P20, 1 mg/ml BSA; global kinetic fit, 1:1 model
[13] = target: T7, LHD289B; test: BLI; biotinylated protomer on streptavidin biosensors, designed partner in solution; 25 °C; 10 mM HEPES pH 7.4, 150 mM NaCl, 3 mM EDTA, 0.05% Surfactant P20, 1 mg/ml BSA; steady-state fit, 1:1 model
T7 construct: de novo designed protomer; BLI: one protomer of the pair was Avi-tagged, biotinylated and immobilised; source: E. coli BL21 LEMO, purified (Ni-NTA, SEC)

[14] = target: T7, LHD289B; test: BLI; biotinylated protomer on streptavidin biosensors, designed partner in solution; 25 °C; 10 mM HEPES pH 7.4, 150 mM NaCl, 3 mM EDTA, 0.05% Surfactant P20, 1 mg/ml BSA; global kinetic fit, 1:1 model
[15] = target: T8, LHD298B; test: BLI; biotinylated protomer on streptavidin biosensors, designed partner in solution; 25 °C; 10 mM HEPES pH 7.4, 150 mM NaCl, 3 mM EDTA, 0.05% Surfactant P20, 1 mg/ml BSA; steady-state fit, 1:1 model
T8 construct: de novo designed protomer; BLI: one protomer of the pair was Avi-tagged, biotinylated and immobilised; also called LHD298 protomer B; source: E. coli BL21 LEMO, purified (Ni-NTA, SEC)

[16] = target: T8, LHD298B; test: BLI; biotinylated protomer on streptavidin biosensors, designed partner in solution; 25 °C; 10 mM HEPES pH 7.4, 150 mM NaCl, 3 mM EDTA, 0.05% Surfactant P20, 1 mg/ml BSA; global kinetic fit, 1:1 model

T6 sequence (main, as listed by the source): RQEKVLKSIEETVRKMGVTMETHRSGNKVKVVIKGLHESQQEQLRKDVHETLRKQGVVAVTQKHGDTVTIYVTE

B1: LHD101A (designed binder)
chain: GRQEKVLKSIEETVRKMGVTMETHRSGNEVKVVIKGLHIKQQRQLYRDVRETSKKQGVETEIEVEGDTVTIVVRE
modifications: biotin on the Avi-tag where immobilised (Fig. S3D, S24B)
For B1, the Kd [1] was 9.5 ± 0.76 nM, the Kd [2] was 1.9 ± 0.04 nM and the koff [2] was 0.0043 s⁻¹. For the same binder, the kon [2] was 2.2e+06 M⁻¹ s⁻¹.

B2: LHD317A (designed binder)
chain: GRQEKVLKSIEETVRKMGVRMLTHRGGNAVIVVIEGLHPSQAEQLLRDVHRTAKKQGVTVHLVFTGDIVVIMVVVGASEEEQEEMHRLVREIAEALHEAKRKGANEEQLEQLLRELLERAEREG
With B2 the Kd [3] was 56 ± 2.3 nM, the Kd [4] was 34.7 ± 0.05 nM and the koff [4] was 0.0051 s⁻¹. The kon [4] was 150000 M⁻¹ s⁻¹.

B3: LHD284A (designed binder)
chain: TDELLERLRQLFEELHERGTIIIVEVHINGERQTKYLILAPKEELKKHLERIREKIEREGSSEVEVKVTSGGTTWTFNEK
For B3, the Kd [5] was 97 ± 13 nM, the Kd [6] was 8.9 ± 0.13 nM and the koff [6] was 0.0012 s⁻¹. For the same binder, the kon [6] was 130000 M⁻¹ s⁻¹.

B4: LHD278A (designed binder)
chain: GRQEKVLKSIEETVRKMGVRMLTHRGGNAVIVVIEGLHPSQIKQLMQDVIKTAKKQGVTVTITVSGDIVVIMVVVGASDEEQEEARRLVQEIARALQEAKRKGANEEQLEQLLRELLERAEREG
B4 was tested, and the Kd [7] was 3.4 ± 0.69 nM, the Kd [8] was 0.8 ± 0.003 nM and the koff [8] was 0.00022 s⁻¹. For the same binder, the kon [8] was 290000 M⁻¹ s⁻¹.

B5: LHD275A (designed binder)
chain: GRQEKVLKSIEETVRKMGVEMLTFRAGNAVIVVIRGLHPEQAKQLLRDVSQTAHKQGVTVTLTFHGDVVFILVLVGASEEEQKHMQERIQELARIIHEAKRRGVSEEQLREIAEKMAKEIQEWG
For B5, the Kd [9] was 4.5 ± 0.22 nM, the Kd [10] was 2.9 ± 0.01 nM and the koff [10] was 0.00041 s⁻¹. For the same binder, the kon [10] was 140000 M⁻¹ s⁻¹.

B6: LHD202B (designed binder)
chain: SVEFHIVNISEEQRQRIEEYVRRISKKEGTEVRFEKRDGELTIEVKNLHEKRLQEILEYIERVNK
With B6 the Kd [11] was 2400 ± 170 nM, the Kd [12] was 4800 ± 250 nM and the koff [12] was 0.29 ± 0.05 s⁻¹. The kon [12] was 60000 M⁻¹ s⁻¹.

B7: LHD289A (designed binder)
chain: GRQEKVLKSIEETVRKMGVTMLTHRHGNVVFVVILGLHKQQALQLLRDVHRTAHKQGVTLSITFSGDIVVIAVTVGASEEEKKEVRKIVKEIAKQLRHAETEEEAKEIVQRVIEEWQEEG
With B7 the Kd [13] was 610 ± 120 nM, the Kd [14] was 1080 ± 39 nM and the koff [14] was 0.057 s⁻¹. For the same binder, the kon [14] was 53000 M⁻¹ s⁻¹.

B8: LHD298A (designed binder)
chain: GRQEKVLKSIEETVRKMGVTMETHRSGNTVKVVIKGLHESQQEQLHKDVEETVQKEGVFVLVSHHGDTVTIQVYE
B8 gave a Kd [15] of 16 ± 3 nM, a Kd [16] of 3.5 ± 0.01 nM and a koff [16] of 0.00022 s⁻¹. For the same binder, the kon [16] was 64000 M⁻¹ s⁻¹.
